Results: patent publication US20190382481A1 (Janssen / Centocor, published 2019)
Positions count from the first letter of the chain named. Names may count otherwise. Values belong to the binder of their own block, whether it stands above or below them.

Columns and labels:
human CD33 [1] = molecular target: T1, human CD33 (human, UniProt P20138 18-364); assay: cell-based or functional assay
human CD33 [2] = molecular target: T1, human CD33; assay: cell-based or functional assay; remark: listed apart in the source
cyno CD33 = cyno CD33 (cynomolgus monkey); assay: cell-based or functional assay
human CD33 [3] = molecular target: T1, human CD33; assay: cell-based or functional assay; remark: listed apart in the source
[4] = molecular target: T2, human recombinant (r)CD33 (human, UniProt P20138 18-259); assay: method not stated
T2 construct: also called human rCD33

[5] = molecular target: cynomologous (cyno) rCD33 (cyno); assay: method not stated
human rCD3e = molecular target: T3, human rCD3e (human, UniProt P07766 23-126); assay: method not stated
T3 construct: also called human recombinant CD3 epsilon

cyno monkey rCD3e = molecular target: T4, cyno monkey rCD3e (cyno monkey, UniProt Q95LI5 22-117, limits assumed); assay: method not stated
T4 construct: also called cyno recombinant CD3 epsilon
T4 sequence (looked up): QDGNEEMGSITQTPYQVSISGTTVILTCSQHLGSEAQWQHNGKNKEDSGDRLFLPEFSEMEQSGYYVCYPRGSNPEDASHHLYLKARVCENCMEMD

[6] = molecular target: CD33 on human CD33 expressing AML cell lines and primary human cells (endogenous) (human, UniProt P20138 18-364); assay: cell-based or functional assay
human CD33 [7] = molecular target: T1, human CD33; assay: cell-based or functional assay; remark: listed apart in the source
Human CD33-V-HSA [8] = molecular target: T5, Human CD33-V-HSA (human); assay: IBIS SPRi off-rate screen
T5 construct: V domain of human CD33 fused to HSA; also called C33W3; huCD33-V-HSA

Human CD33-C2-HSA [9] = molecular target: T6, Human CD33-C2-HSA (human); assay: IBIS SPRi off-rate screen
T6 construct: C2 domain of human CD33 fused to HSA; also called C33W4; huCD33-C2-HSA

Human CD33-V-HSA [10] = molecular target: T7, Human CD33-V-HSA (human); assay: SPRi off-rate screen, domain constructs
T7 construct: V domain of human CD33 fused to HSA (C58S) and six-histidine tag; also called C33W3; huCD33-V-HSA

Human CD33-C2-HSA [11] = molecular target: T8, Human CD33-C2-HSA (human); assay: SPRi off-rate screen, domain constructs
T8 construct: C2 domain of human CD33 fused to HSA (C58S) and six-histidine tag; also called C33W4; huCD33-C2-HSA

T1 sequence (P20138 18-364 limits assumed): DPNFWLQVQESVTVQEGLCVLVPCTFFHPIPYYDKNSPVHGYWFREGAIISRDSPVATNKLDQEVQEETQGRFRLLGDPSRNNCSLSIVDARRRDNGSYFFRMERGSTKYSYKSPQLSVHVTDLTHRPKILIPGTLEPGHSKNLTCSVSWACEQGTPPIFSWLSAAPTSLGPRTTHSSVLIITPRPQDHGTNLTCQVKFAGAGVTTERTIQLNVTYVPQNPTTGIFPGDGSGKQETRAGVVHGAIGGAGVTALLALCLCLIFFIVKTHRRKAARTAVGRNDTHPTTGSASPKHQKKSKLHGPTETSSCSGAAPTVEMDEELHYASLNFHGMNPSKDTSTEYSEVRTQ
Chain of CD33 on human CD33 expressing AML cell lines and primary human cells (endogenous) (P20138 18-364 limits assumed): as above
Chain of cyno CD33 (cynomolgus monkey) (chain, as listed by the source limits assumed): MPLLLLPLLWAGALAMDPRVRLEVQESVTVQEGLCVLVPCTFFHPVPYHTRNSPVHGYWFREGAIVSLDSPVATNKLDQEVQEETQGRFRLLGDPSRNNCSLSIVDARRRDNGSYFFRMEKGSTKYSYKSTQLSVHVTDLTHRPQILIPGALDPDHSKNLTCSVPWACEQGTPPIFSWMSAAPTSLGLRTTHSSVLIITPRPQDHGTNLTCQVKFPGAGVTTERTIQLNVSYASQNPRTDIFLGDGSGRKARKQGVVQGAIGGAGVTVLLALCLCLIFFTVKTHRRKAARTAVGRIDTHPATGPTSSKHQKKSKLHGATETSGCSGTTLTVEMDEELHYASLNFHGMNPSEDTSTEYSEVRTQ
Chain of cynomologous (cyno) rCD33 (cyno) (chain, as listed by the source limits assumed): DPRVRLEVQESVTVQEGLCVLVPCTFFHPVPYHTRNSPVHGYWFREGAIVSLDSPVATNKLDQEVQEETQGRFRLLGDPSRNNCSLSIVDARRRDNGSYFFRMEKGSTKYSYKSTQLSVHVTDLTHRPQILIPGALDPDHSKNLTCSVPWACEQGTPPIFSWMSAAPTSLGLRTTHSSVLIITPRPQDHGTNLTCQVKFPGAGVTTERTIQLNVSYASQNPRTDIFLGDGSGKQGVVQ
T2 sequence (P20138 18-259 limits assumed): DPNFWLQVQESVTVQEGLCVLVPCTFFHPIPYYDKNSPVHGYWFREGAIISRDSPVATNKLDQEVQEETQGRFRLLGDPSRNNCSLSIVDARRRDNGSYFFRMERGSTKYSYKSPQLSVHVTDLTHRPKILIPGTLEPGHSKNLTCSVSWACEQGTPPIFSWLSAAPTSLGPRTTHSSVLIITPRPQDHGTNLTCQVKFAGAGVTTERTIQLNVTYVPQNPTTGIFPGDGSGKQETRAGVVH
T3 sequence (P07766 23-126 limits assumed): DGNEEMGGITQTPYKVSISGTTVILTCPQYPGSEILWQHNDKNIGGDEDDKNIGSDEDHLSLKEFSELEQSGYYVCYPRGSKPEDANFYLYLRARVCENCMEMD

B1: C3CB189 (bispecific antibody, human IgG4 S228P, kappa, lambda, F234A L235A)
heavy 1: not shown
light 1: not shown
heavy 2: QVQLQQSGPRLVRPSQTLSLTCAISGDSVFNNNAAWSWIRQSPSRGLEWLGRTYYRSKWLYDYAVSVKSRITVNPDTSRNQFTLQLNSVTPEDTALYYCARGYSSSFDYWGQGTLVTVSSASTKGPSVFPLAPCSRSTSESTAALGCLVKDYFPEPVTVSWNSGALTSGVHTFPAVLQSSGLYSLSSVVTVPSSSLGTKTYTCNVDHKPSNTKVDKRVESKYGPPCPPCPAPEAAGGPSVFLFPPKPKDTLMISRTPEVTCVVVDVSQEDPEVQFNWYVDGVEVHNAKTKPREEQFNSTYRVVSVLTVLHQDWLNGKEYKCKVSNKGLPSSIEKTISKAKGQPREPQVYTLPPSQEEMTKNQVSLTCLVKGFYPSDIAVEWESNGQPENNYKTTPPVLDSDGSFLLYSKLTVDKSRWQEGNVFSCSVMHEALHNHYTQKSLSLSLGK
light 2: QSALTQPASVSGSPGQSITISCTGTSSNIGTYKFVSWYQQHPDKAPKVLLYEVSKRPSGVSSRFSGSKSGNTASLTISGLQAEDQADYHCVSYAGSGTLLFGGGTKLTVLGQPKAAPSVTLFPPSSEELQANKATLVCLISDFYPGAVTVAWKADSSPVKAGVETTTPSKQSNNKYAASSYLSLTPEQWKSHRSYSCQVTHEGSTVEKTVAPTECS
Primary AML Cell Killing EC50 (nM), ex vivo AML patient whole blood (human CD33 [1]): 0.578 nM
CD33^+ CD14^+ Killing EC50 (nM), ex vivo human whole blood (human CD33 [2]): 1.16 nM
MOLM13 Killing EC50 (nM), ex vivo human whole blood (human CD33 [2]): 0.168 nM
CD33^+ CD14^+ Killing EC50 (nM), ex vivo cynomolgus whole blood (cyno CD33): 3.6 nM
T cell activation EC50 (nM), ex vivo cynomolgus whole blood (cyno CD33): 0.02 nM
IFN-gamma release, Median EC50 (human CD33 [3]): 0.16 nM
IL-1beta release, Median EC50 (human CD33 [3]): 0.045 nM
IL-2 release, Median EC50 (human CD33 [3]): 0.346 nM
IL-4 release, Median EC50 (human CD33 [3]): 0.078 nM
IL-8 release, Median EC50 (human CD33 [3]): 0.042 nM
IL-10 release, Median EC50 (human CD33 [3]): 0.123 nM
IL-13 release, Median EC50 (human CD33 [3]): 0.034 nM
TNF-alpha release, Median EC50 (human CD33 [3]): 0.208 nM

B2: C3CB189 (bispecific antibody, human IgG4 S228P, kappa, lambda, F234A L235A)
heavy 1: not shown
light 1: not shown
heavy 2: B1 heavy 2
light 2: B1 light 2
notes: Fully human IgG4-PAA bispecific made by Fab-arm exchange; CD33 arm C33B904 (C33H252/C33L118), CD3 arm CD3B376 (CD3H219/CD3L150; F405L, R409K); also called C33B904 × CD3B376
Kd [4]: 0.00089 nM
Kd [5]: 0.363 nM
Kd (human rCD3e): 151 nM
Kd (cyno monkey rCD3e): 43.8 nM
T cell activation (CD25) in human whole blood with Kasumi-1, median EC50 [6]: 0.085 nM
T cell activation (CD25) in human whole blood with MOLM-13, median EC50 [6]: 0.037 nM
T cell activation (CD25) with KG-1 target cells, median EC50 [6]: 0.0664 nM
T cell activation (CD25) with Kasumi-1 target cells, median EC50 [6]: 0.0432 nM
T cell activation (CD25) with MOLM-13 target cells, median EC50 [6]: 0.0283 nM
T cell activation (CD25) with OCI-AML3 target cells, median EC50 [6]: 0.05 nM
T cell-mediated cytotoxicity of KG-1, median EC50, 6 donors, 48 h [6]: 0.168 nM
T cell-mediated cytotoxicity of Kasumi-1, median EC50, 6 donors, 48 h [6]: 0.05 nM
T cell-mediated cytotoxicity of Kasumi-1 spiked in human whole blood, median EC50, 48 h [6]: 0.124 nM
T cell-mediated cytotoxicity of MOLM-13, median EC50, 6 donors, 48 h [6]: 0.131 nM
T cell-mediated cytotoxicity of MOLM-13 spiked in human whole blood, median EC50, 48 h [6]: 0.111 nM
T cell-mediated cytotoxicity of OCI-AML3, median EC50, 6 donors, 48 h [6]: 0.183 nM
ex vivo cytotoxicity of CD33+ blasts in AML patient whole blood, median EC50 [6]: 0.365 nM

B3: C33B782 (antibody, human IgG4 S228P, lambda, F234A L235A)
heavy: not shown
light: SYELTQPPSVSVSPGQTASITCSGNKLGAKFASWYQQKPGQSPVLVIYQDNKRPSGIPERFSGSNSGNTATLTISGTQAVDEADYYCQAWDSSTVVFGGGTKLTVLGQPKAAPSVTLFPPSSEELQANKATLVCLISDFYPGAVTVAWKADSSPVKAGVETTTPSKQSNNKYAASSYLSLTPEQWKSHRSYSCQVTHEGSTVEKTVAPTECS
EC50 (nM), CD33 internalization assay (Protein A-MMAF cell viability, MOLM13) (human CD33 [7]): 0.88 nM

B5: C33B782 (antibody, human IgG4 S228P, lambda, F234A L235A)
heavy: not shown
light: B3 light
notes: huIgG4 PAA; HC C33H72, LC C33L40 (same V region as C33B77); also called C33F82
binding result (Human CD33-V-HSA [8]): no binding
binding result (Human CD33-C2-HSA [9]): no binding

B6: C33B782 (antibody, human IgG4 S228P, lambda, F234A L235A)
heavy: not shown
light: B3 light
notes: huIgG4 PAA; OMNIRat campaign; also called C33H72/C33L40
binding result (Human CD33-V-HSA [10]): no binding
binding result (Human CD33-C2-HSA [11]): no binding

B10: C33B836 (antibody, human IgG4 S228P, lambda, F234A L235A)
heavy: not shown
light: QSALTQPASVSGSPGQSITISCTGTSSDVGDYNYVSWYQQHPGKVPKLMIYDVSNRPSGVSNRFSGSMSGNTASLTISGLQAEDEADYYCSSYSSSSALEVFGGGTKLTVLGQPKAAPSVTLFPPSSEELQANKATLVCLISDFYPGAVTVAWKADSSPVKAGVETTTPSKQSNNKYAASSYLSLTPEQWKSHRSYSCQVTHEGSTVEKTVAPTECS
EC50 (nM), CD33 internalization assay (Protein A-MMAF cell viability, MOLM13) (human CD33 [7]): 0.04 nM

B13: C33B937 (antibody, human IgG4 S228P, lambda, F234A L235A, V domains shown)
VH: QVQLVESGGGVVQPGRSLRLSCVASGFTFSSYGMHWVRQAPGKGLEWVAVISYDGSNKYYADSVKGRFTISRDNSKNTLYLQMNSLRAEGTAVYYCAKDFRSFDWLPPDSASYHGMDVWGQGTTVTVSS
VL: SYELTQPPSVSVSPGQTASITCSGDKLGDKYASWYQQKPGQSPVLVIYQDGKRPSGIPERFSGSNFGNKATLTISGTQAMDEADYYCQAWDRNTVVFGGGTKLTVLG
EC50 (nM), CD33 internalization assay (Protein A-MMAF cell viability, MOLM13) (human CD33 [7]): 1.92 nM

Results, then the binder that gave them:

binding result (Human CD33-V-HSA [8]): no binding
B4: C33B778 (antibody, human IgG4 S228P, lambda, F234A L235A)
heavy: not shown
light: B3 light with N25D, A29D, F31Y, S33C, N51G, S66F, T69K, V80M, S92R, S93N
notes: huIgG4 PAA; HC C33H66, LC C33L60 (same V region as C33B73); also called C33F78

binding result (Human CD33-V-HSA [10]): no binding
B7: C33B778 (antibody, human IgG4 S228P, lambda, F234A L235A)
heavy: not shown
light: B3 light with N25D, A29D, F31Y, S33C, N51G, S66F, T69K, V80M, S92R, S93N
notes: huIgG4 PAA; OMNIRat campaign; also called C33H66/C33L60

binding result (Human CD33-V-HSA [8]): no binding
binding result (Human CD33-C2-HSA [9]): no binding
B8: C33B792 (antibody, human IgG4 S228P, lambda, F234A L235A)
heavy: not shown
light: B3 light with N25D, A29N, F31Y, N51T, F61V, V80M, Y86H
notes: huIgG4 PAA; HC C33H87, LC C33L35 (same V region as C33B87); also called C33F92

binding result (Human CD33-V-HSA [10]): no binding
binding result (Human CD33-C2-HSA [11]): no binding
B9: C33B792 (antibody, human IgG4 S228P, lambda, F234A L235A)
heavy: not shown
light: B3 light with N25D, A29N, F31Y, N51T, F61V, V80M, Y86H
notes: huIgG4 PAA; OMNIRat campaign; also called C33H87/C33L35

binding result (Human CD33-C2-HSA [9]): no binding
B11: C33B836 (antibody, human IgG4 S228P, lambda, F234A L235A)
heavy: not shown
light: B10 light
notes: huIgG4 PAA; HC C33H80, LC C33L73 (same V region as C33B48); also called C33F53

binding result (Human CD33-C2-HSA [11]): no binding
B12: C33B836 (antibody, human IgG4 S228P, lambda, F234A L235A)
heavy: not shown
light: B10 light
notes: huIgG4 PAA; OMNIRat campaign; also called C33H80/C33L73
